Laboratory results taken from patent EP4545559A2 (INSTITUTO BUTANTAN, dated 2025).
Like-named read-outs stand apart in the source and are kept apart here.

Tests used:
[1] = target: T1, RBD WT (original Wuhan) (SARS-CoV-2, UniProt P0DTC2 319-541)
[2] = target: T1, RBD WT (original Wuhan); remark: listed apart in the source
[3] = target: T1, RBD WT (original Wuhan); remark: listed apart in the source
[4] = target: T1, RBD WT (original Wuhan); remark: listed apart in the source
[5] = target: T1, RBD WT (original Wuhan); remark: listed apart in the source

B1: Monoclonal antibody S.9.2.D7 (antibody, V domains shown)
VH: EVQLLESGGGLIQTGGSLRLSCAASGFTFSSYAMSWVRQAPGKGLEWVSVISDSGGSTYYADSVKGRLTISRDNSKNTLYVQMNSLRAEDTAVYYCAKGKGGIAAAGPAFLFDYWGQGTLVTVSS
VL: DIQMTQSPSLLSASAGDRVTISCRMSQGISSYLAWYQQKPGKAPELLISSASTLQSGVPSRFSGSGSGTDFTLTISYLQSEDFATYYCQQYYSFPTTFGGGTKVEIK
notes: also called mAb S.9.2.D7
Kd [1]: 4850 pM

B2: Monoclonal antibody S.9.4.C7 (antibody, V domains shown)
VH: QVQLVESGGGVVQPGRSLRLSCAASGFTFRNYAMHWVRQAPGKGLEWVTVISYDGSDKYYADSVKGRFTISRDNSKNTLYLQMNSLRAEDTAVYYCAKDPVGGYCSGGRCYFHSHYFDYWGQGTLVTVSS
VL: NFMLTQPHSVSESPGKTVTISCTRSSGSIASYYVQWYQQRPGSSPTTVISEDNQRPSGVPDRFSGSIDSSSNSASLTISGLKTEDEADYYCQSYDSNNHVIFGGGTKLTVL
notes: also called mAb S.9.4.C7
Kd [2]: 40.7 pM

B3: Monoclonal antibody S.9.4.F4 (antibody, V domains shown)
VH: QVQLVESGGGVVQPGRSLRLSCAASGFTFSHYGMHWVRQAPGKGLEWVAVILYDGSNEYYADSVKGRFTISRDNSKNTLYLQMNSLRAEDTAVYYCAKGAGTYCSGGNCYVAYFDYWGQGTLVTVSS
VL: AIRMTQSPSSLSASVGDRVTITCQASQDISNYLNWYQQKPGKAPKLLIYDASNLETGVPSRFSGSGSGTDFTVTISSLQPEDFATYYCQQYDNLPLTFGGGTKVEIK
notes: also called mAb S.9.4.F4
Kd [3]: ~33.6 pM

B4: Monoclonal antibody S.9.1.C9 (antibody, V domains shown)
VH: QVQLVESGGGVVQPGRSLGLSCAVSGFTFSNYGMDWVRQAPGKGLEWVAVTSYDGSNKYYADSVKGRFTISRDNSKNTLYLQMNSLRTEDTAVYYCAKHGGGPYCGGGTCYLAYFDYWGQGTLVTVSS
VL: DIQMTQSPSSLSASVRDRVTITCQASQDISKFLNWYQQKPGKAPKLLIYDASNLETGVPSRFSGSGSGTDFTFTISSLQPEDIATYYCQQYDNLPITFGQGTRLEIKR
notes: also called mAb S.9.1.C9
Kd [4]: 214 pM

B5: Monoclonal antibody S.9.2.B8 (antibody, V domains shown)
VH: EVQLVETGGGLIQPGGSLRLSCAASGLIVSSNYMTWVRQAPGKGLEWVSVLYSGGTTYYADSVKGRVTISRDNSKNTLYLQVNSLTVADTAVYYCARDLADRGGMDVWGQGTTVTVSS
VL: SYELTQPPSVSVAPGQTARITCGGNNIGSQSVHWYQQKPGQAPVLVVYDDSDRPSGIPERFSGSKSGNMATLTISRVEAGDEADYYCQVWDSSSDHVVFGGGTKLTVL
notes: also called mAb S.9.2.B8
Kd [5]: 1990 pM
